Experimental findings from patent publication US20180030151A1 (MOGAM INSTITUTE FOR BIOMEDICAL RESEARCH, published 2018) are described below.

Test in all cases: cell-based or functional assay
Assay [1] concerns the target T1, recombinant human TFPI (tissue factor pathway inhibitor) (human, UniProt P10646 29-304).
Assay [2] concerns the target T1, recombinant human TFPI (tissue factor …). This is another data set of the same source.
Assay [3] shares this target. This is another data set of the same source.
Assay [4] has the same target. This is another data set of the same source.
Assay [5] has the same target. This is another data set of the same source.
For assay [6] the target is unchanged. The source holds these as a separate data set.
Assay [7] shares this target. The source holds these as a separate data set.
For assay [8] the target is unchanged. This is another data set of the same source.

Positions count from the first letter of the chain named. Where two headings read alike, the source gives them in different places.

B1: clone 11 (antibody, V domains shown)
VH: EVQLVESGGGLVKPGGSLRLSCAASGFTFSSYAMNWVRQAPGKGLEWVGTITTGGSYTYYADSVEGRFTISRDNAKNSLYLQMNSLRAEDTAVYYCARQDGNFLMDYWGQGTLVTVSS
VL: DVVMTQTPLSLPVTLGQPASISCKSSPSLLDIDGKTYLNWLQQRPGQSPKRLIYLVSKLDSGVPDRFTGSGSGTDFTLKISRVEAEDVGVYYCWQGTHFPFTFGQGTKVEIKR
B1: in assay [1], the “FXa assay % of FXa alone, 2.5 nM Ab, 10 nM TFPI” value worked out at 7%; the “FXa assay % of FXa alone, 5 nM Ab, 10 nM TFPI” value turned out to be 29.6%; the “FXa assay OD, 2.5 nM Ab, 10 nM TFPI” value was 0.0575; the “FXa assay OD, 5 nM Ab, 10 nM TFPI” value came to 0.244. In addition, in assay [1], the “FXa assay OD, 10 nM Ab, 10 nM TFPI” value is 0.672 and the “FXa assay OD, 20 nM Ab, 10 nM TFPI” value amounted to 0.734. Further, in assay [2], the “effect of inhibiting TFPI, FXa activity assay, Ab 10 nM” value (“effect of inhibiting TFPI … Ab 10 nM” for short) was approximately 81% and the “effect of inhibiting TFPI, FXa activity assay, Ab 20 nM” value (shortened to “effect of inhibiting TFPI … Ab 20 nM”) is approximately 89%.

B2: clone A24 (antibody, V domains shown)
VH: B1 VH with S30H, G49S, G54R
VL: B1 VL with P27Q, I32V
For the molecule B2, in assay [3], the “FXa assay % of FXa alone, 2.5 nM Ab, 10 nM TFPI” value worked out at 5% and the “FXa assay % of FXa alone, 20 nM Ab, 10 nM TFPI” value stood at 4%.

B3: clone 4287 (antibody, V domains shown)
VH: EVQLVESGGGLVKPGGSLRLSCAASGFTFSKYAMNWFRQAPGKGLEWVSTITTGGSYTYYADSVEGRFTISRDNAKNSLYLQMNSLRAEDTAVYYCARQHPYGNFLMDYWGQGTLVTVSS
VL: B1 VL with P27Q
In the case of B3, in assay [4], the “FXa assay % of FXa alone, 2.5 nM Ab, 10 nM TFPI” value worked out at 3.4%; the “FXa assay % of FXa alone, 5 nM Ab, 10 nM TFPI” value stood at 3.5%; the “FXa assay % of FXa alone, 10 nM Ab, 10 nM TFPI” value was determined as 3.3%; the “FXa assay % of FXa alone, 20 nM Ab, 10 nM TFPI” value amounted to 2.5%.

B4: clone 3024 (antibody, V domains shown)
VH: B1 VH with N35S, G49S, E65Q
VL: B1 VL with P27Q, I32S, F99L
As to B4, in assay [5], the “FXa assay % of FXa alone, 2.5 nM Ab, 10 nM TFPI” value came out at 3.6%; the “FXa assay % of FXa alone, 5 nM Ab, 10 nM TFPI” value worked out at 4.2%; the “FXa assay % of FXa alone, 10 nM Ab, 10 nM TFPI” value was determined as 6.6%; the “FXa assay % of FXa alone, 20 nM Ab, 10 nM TFPI” value came out at 32.5%. Besides, in assay [5], the “FXa assay OD, 2.5 nM Ab, 10 nM TFPI” value is 0.026 and the “FXa assay OD, 20 nM Ab, 10 nM TFPI” value was 0.234.

B5: clone 3131 (antibody, V domains shown)
VH: B1 VH with N35S, G49S, E65Q, N102Q
VL: B1 VL with P27Q
For B5, in assay [6], the “FXa assay % of FXa alone, 2.5 nM Ab, 10 nM TFPI” value was 6.6%; the “FXa assay % of FXa alone, 5 nM Ab, 10 nM TFPI” value was found to be 7.7%; the “FXa assay % of FXa alone, 10 nM Ab, 10 nM TFPI” value is 14.9%; the “FXa assay % of FXa alone, 20 nM Ab, 10 nM TFPI” value was 61.6%. Further, in assay [6], the “FXa assay OD, 10 nM Ab, 10 nM TFPI” value stood at 0.115 and the “FXa assay OD, 20 nM Ab, 10 nM TFPI” value amounted to 0.474.

B6: clone 3115 (antibody, V domains shown)
VH: B1 VH with Y57H, E65D
VL: B1 VL with P27Q, I32V
Regarding B6, in assay [6], the “FXa assay % of FXa alone, 2.5 nM Ab, 10 nM TFPI” value was determined as 6.2%; the “FXa assay % of FXa alone, 5 nM Ab, 10 nM TFPI” value worked out at 8.1%; the “FXa assay % of FXa alone, 10 nM Ab, 10 nM TFPI” value is 16.2%; the “FXa assay % of FXa alone, 20 nM Ab, 10 nM TFPI” value is 69.1%. In assay [6], the “FXa assay OD, 10 nM Ab, 10 nM TFPI” value turned out to be 0.125 and the “FXa assay OD, 20 nM Ab, 10 nM TFPI” value was determined as 0.532.

B7: clone 1021 (antibody, V domains shown)
VH: B1 VH with G49S, E65D, N102H
VL: B1 VL with P27Q
For the molecule B7, in assay [5], the “FXa assay % of FXa alone, 2.5 nM Ab, 10 nM TFPI” value turned out to be 4.7%; the “FXa assay % of FXa alone, 10 nM Ab, 10 nM TFPI” value came to 32.9%; the “FXa assay % of FXa alone, 20 nM Ab, 10 nM TFPI” value stood at 78.7%; the “FXa assay OD, 2.5 nM Ab, 10 nM TFPI” value came out at 0.034. Further, in assay [5], the “FXa assay OD, 10 nM Ab, 10 nM TFPI” value worked out at 0.236 and the “FXa assay OD, 20 nM Ab, 10 nM TFPI” value worked out at 0.566.

B8: clone 3016 (antibody, V domains shown)
VH: B1 VH with G49S, Y57H
VL: B1 VL with P27Q, I32S, F99L
On to B8, for which, in assay [5], the “FXa assay % of FXa alone, 2.5 nM Ab, 10 nM TFPI” value came out at 3.7%; the “FXa assay % of FXa alone, 5 nM Ab, 10 nM TFPI” value was determined as 4.8%; the “FXa assay % of FXa alone, 10 nM Ab, 10 nM TFPI” value stood at 6.3%; the “FXa assay % of FXa alone, 20 nM Ab, 10 nM TFPI” value was found to be 14.2%. The “FXa assay OD, 20 nM Ab, 10 nM TFPI” value in assay [5] was 0.102.

B9: clone A63 (antibody, V domains shown)
VH: B1 VH with G49S, E65Q
VL: B1 VL with P27Q, I32V
As for B9, in assay [3], the “FXa assay % of FXa alone, 2.5 nM Ab, 10 nM TFPI” value was 4.8%; the “FXa assay % of FXa alone, 5 nM Ab, 10 nM TFPI” value came out at 5.3%; the “FXa assay % of FXa alone, 10 nM Ab, 10 nM TFPI” value turned out to be 4.5%; the “FXa assay % of FXa alone, 20 nM Ab, 10 nM TFPI” value was 5.6%.

B10: clone A25 (antibody, V domains shown)
VH: B1 VH with G49S, Y57H
VL: B1 VL with P27Q, I32R
On to B10, for which, in assay [3], the “FXa assay % of FXa alone, 2.5 nM Ab, 10 nM TFPI” value is 5.6% and the “FXa assay % of FXa alone, 10 nM Ab, 10 nM TFPI” value was 5.3%.

B11: clone 1214 (antibody, V domains shown)
VH: B1 VH with G49S
VL: B1 VL with P27Q, I32V
Regarding B11, in assay [4], the “FXa assay % of FXa alone, 2.5 nM Ab, 10 nM TFPI” value is 6.9%; the “FXa assay % of FXa alone, 5 nM Ab, 10 nM TFPI” value amounted to 23.2%; the “FXa assay OD, 2.5 nM Ab, 10 nM TFPI” value amounted to 0.06; the “FXa assay OD, 5 nM Ab, 10 nM TFPI” value was determined as 0.202. Moreover, in assay [4], the “FXa assay OD, 10 nM Ab, 10 nM TFPI” value was determined as 0.545 and the “FXa assay OD, 20 nM Ab, 10 nM TFPI” value came out at 0.672. Moreover, in assay [2], the “effect of inhibiting TFPI … Ab 10 nM” value was approximately 63% and the “effect of inhibiting TFPI … Ab 20 nM” value is approximately 77%.

B12: clone 4141 (antibody, V domains shown)
VH: B1 VH with Y57H, N102Y
VL: B1 VL with P27Q, I32V
In the case of B12, in assay [6], the “FXa assay % of FXa alone, 2.5 nM Ab, 10 nM TFPI” value came to 6.4%; the “FXa assay % of FXa alone, 5 nM Ab, 10 nM TFPI” value turned out to be 8.4%; the “FXa assay % of FXa alone, 10 nM Ab, 10 nM TFPI” value worked out at 16.7%; the “FXa assay % of FXa alone, 20 nM Ab, 10 nM TFPI” value came to 80.5%. In addition, in assay [6], the “FXa assay OD, 2.5 nM Ab, 10 nM TFPI” value came to 0.0495; the “FXa assay OD, 10 nM Ab, 10 nM TFPI” value came to 0.129; the “FXa assay OD, 20 nM Ab, 10 nM TFPI” value came out at 0.62.

B13: clone 3007 (antibody, V domains shown)
VH: B1 VH with S30T, G49S, T53L, E65Q
VL: B1 VL with P27Q, I32L
B13: in assay [5], the “FXa assay % of FXa alone, 2.5 nM Ab, 10 nM TFPI” value came out at 3.5%; the “FXa assay % of FXa alone, 5 nM Ab, 10 nM TFPI” value turned out to be 3.6%; the “FXa assay % of FXa alone, 10 nM Ab, 10 nM TFPI” value amounted to 3.6%; the “FXa assay % of FXa alone, 20 nM Ab, 10 nM TFPI” value was determined as 3%.

B14: clone 3120 (antibody, V domains shown)
VH: B1 VH with G49S, N102Y
VL: B1 VL with P27Q
Regarding B14, in assay [6], the “FXa assay % of FXa alone, 2.5 nM Ab, 10 nM TFPI” value was found to be 6.4%; the “FXa assay % of FXa alone, 5 nM Ab, 10 nM TFPI” value turned out to be 9.1%; the “FXa assay % of FXa alone, 10 nM Ab, 10 nM TFPI” value came out at 33.4%; the “FXa assay % of FXa alone, 20 nM Ab, 10 nM TFPI” value was 81.3%. Besides, in assay [6], the “FXa assay OD, 2.5 nM Ab, 10 nM TFPI” value came out at 0.0495; the “FXa assay OD, 5 nM Ab, 10 nM TFPI” value came to 0.07; the “FXa assay OD, 10 nM Ab, 10 nM TFPI” value amounted to 0.258; the “FXa assay OD, 20 nM Ab, 10 nM TFPI” value was 0.626.

B15: clone 4017 (antibody, V domains shown)
VH: B1 VH with E65Q, N102Y
VL: B1 VL with P27Q
In the case of B15, in assay [7], the “A405, TF/FVIIa/FX complex assay, Ab 1.56 nM” value amounted to 0.134; the “A405, TF/FVIIa/FX complex assay, Ab 3.13 nM” value amounted to 0.138; the “A405, TF/FVIIa/FX complex assay, Ab 6.25 nM” value turned out to be 0.15; the “A405, TF/FVIIa/FX complex assay, Ab 12.5 nM” value came out at 0.181. In assay [7], the “A405, TF/FVIIa/FX complex assay, Ab 25 nM” value is 0.307; the “A405, TF/FVIIa/FX complex assay, Ab 50 nM” value amounted to 0.919; the “A405, TF/FVIIa/FX complex assay, Ab 100 nM” value was 0.943. Moreover, in assay [2], the “effect of inhibiting TFPI … Ab 10 nM” value is approximately 70% and the “effect of inhibiting TFPI … Ab 20 nM” value is approximately 90%. Moreover, in assay [8], the “% of Normalized, TF/FVIIa/FX complex assay, Ab 1.56 nM” value was found to be 14.5%; the “% of Normalized, TF/FVIIa/FX complex assay, Ab 3.13 nM” value was 15%; the “% of Normalized, TF/FVIIa/FX complex assay, Ab 6.25 nM” value was 16.3%; the “% of Normalized, TF/FVIIa/FX complex assay, Ab 12.5 nM” value was 19.7%. In assay [8], the “% of Normalized, TF/FVIIa/FX complex assay, Ab 25 nM” value worked out at 33.4%; the “% of Normalized, TF/FVIIa/FX complex assay, Ab 50 nM” value amounted to 100%; the “% of Normalized, TF/FVIIa/FX complex assay, Ab 100 nM” value is 103%. In assay [6], the “FXa assay % of FXa alone, 2.5 nM Ab, 10 nM TFPI” value came to 6%; the “FXa assay % of FXa alone, 5 nM Ab, 10 nM TFPI” value is 10.6%; the “FXa assay OD, 2.5 nM Ab, 10 nM TFPI” value came out at 0.046; the “FXa assay OD, 5 nM Ab, 10 nM TFPI” value amounted to 0.0815. In addition, in assay [6], the “FXa assay OD, 10 nM Ab, 10 nM TFPI” value worked out at 0.54 and the “FXa assay OD, 20 nM Ab, 10 nM TFPI” value stood at 0.696.
